Tests used:
[1] = molecular target: Ef-SOD1a^Δ (Euplotes focardii Cu,Zn superoxide dismutase 1a without its signal peptide) (Euplotes focardii); test: SEC; comparison of the SEC chromatographic profiles of Ef-SOD1a and Ef-SOD1b; data not shown
[2] = molecular target: Ef-SOD1b (Euplotes focardii Cu,Zn superoxide dismutase 1b) (Euplotes focardii); test: SEC-MALS; 200 µl of protein (1 mg/ml) on Superose12 10/300 GL; 50 mM sodium phosphate buffer, NaCl 150 mM, pH 7.5
[3] = molecular target: Ef-SOD2^Δ (Euplotes focardii Mn superoxide dismutase without its mitochondrial signal peptide) (Euplotes focardii); test: as above

For “Ef-SOD1a^Δ (Euplotes focardii Cu,Zn superoxide dismutase 1a without its signal peptide) (enzyme)”, the stoichiometry N [1] was 2.
In the case of “Ef-SOD1b (Euplotes focardii Cu,Zn superoxide dismutase 1b) (enzyme)”, the stoichiometry N [2] is reported as 2.
Substance “Ef-SOD2^Δ (Euplotes focardii Mn superoxide dismutase without its mitochondrial signal peptide) (enzyme)” has a stoichiometry N [3] of 4.

Source: publication PMC6170424
